Test results from patent US10407469B2, “Programmable polypeptide and nucleic acid nanoparticles” (Northwestern University, priority 2016, dated 2019).

Key:
[1] = test system: siRNA; assay: Structural change upon siRNA binding, circular dichroism; assay type: physicochemical
Excerpt: (§1) FIGS. 1A-I. Nanoparticles of an engineered polypeptide carrying siRNA (A) C-terminus RNA binding motif CT-dsRBD (in yellow) excised from a canonical double stranded RNA binding domain (dsRBD) and fused to a self-assembly enhancer […] in order to obtain the engineered RNA binding polypeptide (P4) (B) electrophoresis gels of proteins binding siRNA (left). Plot of the bound siRNA (right). (C) Structural change of P4 and CT-dsRBD upon binding to siRNA determined by circular dichroism. (D) Increase in hydrodynamic size of P4 upon siRNA binding determined by DLS. (E) siRNA-P4 nanoparticles in solution imaged by cryo-TEM. Scale bar is 200 nm. […] (H) Salt stability of P4 nanoparticles. (I) Formation of siRNA-P4 nanoparticles in different buffers.
(§2) FIGS. 2A-J. Programmable protein for bioactive siRNA delivery nanoparticles. (A) P4 is functionalized with bioactive peptides, P4-RGD & P4-His6. […] (E) Ellipticity change in function of siRNA concentration (bottom scale) and P4-to-siRNA stoichiometry (top scale). (F) Hydrodynamic size and (G) Zeta potential of P4 nanoparticles. (H & I) Cryo-TEM and (j) AFM micrographs of siRNA-P4 nanoparticles.

[2] = test system: siRNA; assay: siRNA binding, electrophoresis gels; conditions: compared with P4
Excerpt: as §1, §2

[3] = test system: siRNA; assay: Nanoparticle self-assembly upon siRNA binding (DLS, cryo-TEM); assay type: physicochemical
Excerpt: as §1, §2

binding to siRNA / nucleic acid cargo [2]	Substance	Structural change triggered by siRNA binding [1]	self-assembly into nanoparticles upon binding to nucleic acid [3]	hydrodynamic size upon siRNA binding ([3]; determined by DLS)
bind to siRNA similarly as P4	P4-RGD: P4 functionalized with bioactive peptide RGD (CRGDCSIRKLEYEIEELRLRIGGGTFVETGSGTSKQVAKRVAAEKLLTKFKT)	triggered by siRNA binding as in P4		
	P4: engineered RNA binding polypeptide: CT-dsRBD RNA binding motif fused to a self-assembly enhancer helix (SIRKLEYEIEELRLRIGGGTFVETGSGTSKQVAKRVAAEKLLTKFKT)		self-assembles into nanoparticles upon binding to siRNA	Increase
bind to siRNA similarly as P4	P4-His6: P4 functionalized with bioactive peptide His6 (HHHHHHSIRKLEYEIEELRLRIGGGTFVETGSGTSKQVAKRVAAEKLLTKFKT)	triggered by siRNA binding as in P4		
